According to US20070082369A1:

What was measured:
[1] = biological target: Pichia-expressed recombinant Der f 1 protein PDerf1303b (Dermatophagoides farinae) (UniProt P16311); assay: sandwich ELISA, capture MAb 6A8, detection biotinylated MAb 4C1; 50 ng protein per well
[2] = biological target: Heska native Derf1 (Dermatophagoides farinae) (UniProt P16311); assay: as above
[3] = biological target: E. coli-expressed recombinant Der f 1 protein PDerf1303c (Dermatophagoides farinae) (UniProt P16311); assay: as above
[4] = biological target: Pichia-expressed recombinant Der f 1 protein PDerf1303b (Dermatophagoides farinae) (UniProt P16311); assay: sandwich ELISA, capture MAb 6A8, detection biotinylated MAb 4C1; 25 ng protein per well
[5] = biological target: Heska native Derf1 (Dermatophagoides farinae) (UniProt P16311); assay: as above
[6] = biological target: E. coli-expressed recombinant Der f 1 protein PDerf1303c (Dermatophagoides farinae) (UniProt P16311); assay: as above
[7] = biological target: Pichia-expressed recombinant Der f 1 protein PDerf1303b (Dermatophagoides farinae) (UniProt P16311); assay: sandwich ELISA, capture MAb 6A8, detection biotinylated MAb 4C1; 2.5 ng protein per well
[8] = biological target: Heska native Derf1 (Dermatophagoides farinae) (UniProt P16311); assay: as above
[9] = biological target: E. coli-expressed recombinant Der f 1 protein PDerf1303c (Dermatophagoides farinae) (UniProt P16311); assay: as above
[10] = biological target: Pichia-expressed recombinant Der f 1 protein PDerf1303b (Dermatophagoides farinae) (UniProt P16311); assay: sandwich ELISA, capture MAb 6A8, detection biotinylated MAb 4C1; 3.1 ng protein per well
[11] = biological target: Heska native Derf1 (Dermatophagoides farinae) (UniProt P16311); assay: as above
[12] = biological target: E. coli-expressed recombinant Der f 1 protein PDerf1303c (Dermatophagoides farinae) (UniProt P16311); assay: as above
[13] = biological target: Pichia-expressed recombinant Der f 1 protein PDerf1303b (Dermatophagoides farinae) (UniProt P16311); assay: sandwich ELISA, capture MAb 6A8, detection biotinylated MAb 4C1; 1.5 ng protein per well
[14] = biological target: Heska native Derf1 (Dermatophagoides farinae) (UniProt P16311); assay: as above
[15] = biological target: E. coli-expressed recombinant Der f 1 protein PDerf1303c (Dermatophagoides farinae) (UniProt P16311); assay: as above
[16] = biological target: Pichia-expressed recombinant Der f 1 protein PDerf1303b (Dermatophagoides farinae) (UniProt P16311); assay: sandwich ELISA, capture MAb 6A8, detection biotinylated MAb 4C1; 6.25 ng protein per well
[17] = biological target: Heska native Derf1 (Dermatophagoides farinae) (UniProt P16311); assay: as above
[18] = biological target: E. coli-expressed recombinant Der f 1 protein PDerf1303c (Dermatophagoides farinae) (UniProt P16311); assay: as above
[19] = biological target: Pichia-expressed recombinant Der f 1 protein PDerf1303b (Dermatophagoides farinae) (UniProt P16311); assay: sandwich ELISA, capture MAb 6A8, detection biotinylated MAb 4C1; 0.75 ng protein per well
[20] = biological target: Heska native Derf1 (Dermatophagoides farinae) (UniProt P16311); assay: as above
[21] = biological target: E. coli-expressed recombinant Der f 1 protein PDerf1303c (Dermatophagoides farinae) (UniProt P16311); assay: as above

**Q.** What does the source list for “anti-Der f 1 protein monoclonal antibody 6A8”?
**A.** OD [1]: 2150 OD x1000; OD [2]: 2180 OD x1000; OD [3]: 1980 OD x1000; OD [4]: 2160 OD x1000; OD [5]: 2140 OD x1000; OD [6]: 1770 OD x1000; OD [7]: 2090 OD x1000; OD [8]: 2290 OD x1000; OD [9]: 1370 OD x1000; OD [10]: 1540 OD x1000; OD [11]: 2220 OD x1000; OD [12]: 503 OD x1000; OD [13]: 916 OD x1000; OD [14]: 2040 OD x1000; OD [15]: 268 OD x1000; OD [16]: 1960 OD x1000; OD [17]: 2200 OD x1000; OD [18]: 890 OD x1000; OD [19]: 405 OD x1000; OD [20]: 1740 OD x1000; OD [21]: 136 OD x1000
